Molecular target: T1, R5 peptide
T1 chain: SSKKSGSYSGSKGSKRRIL

B1: deoxyhypusine synthase (DHPS) (protein)
chain: MEGSLEREAPAGALAAVLKHSSTLPPESTQVRGYDFNRGVNYRALLEAFGTTGFQATNFGRAVQQVNAMIEKKLEPLSQDEDQHADLTQSRRPLTSCTIFLGYTSNLISSGIRETIRYLVQHNMVDVLVTTAGGVEEDLIKCLAPTYLGEFSLRGKELRENGINRIGNLLVPNENYCKFEDWLMPILDQMVMEQNTEGVKWTPSKMIARLGKEINNPESVYYWAQKNHIPVFSPALTDGSLGDMIFFHSYKNPGLVLDIVEDLRLINTQAIFAKCTGMIILGGGVVKHHIANANLMRNGADYAVYINTAQEFDGSDSGARPDEAVSWGKIRVDAQPVKVYADASLVFPLLVAETFAQKMDAFMHEKNED
  hypusination of R5 (LC-MS time course): A time course showing the conversion of two lysine to hypusine residues was determined by LC-MS

B2: deoxyhypusine hydroxulase (DOHH) (protein)
chain: MVTEQEVDAIGQTLVDPKQPLQARFRALFTLRGLGGPGAIAWISQAFDDDSALLKHELAYCLGQMQDARAIPMLVDVLQDTRQEPMVRHEAGEALGAIGDPEVLEILKQYSSDPVIEVAETCQLAVRRLEWLQQHGGEPAAGPYLSVDPAPPAEERDVGRLREALLDESRPLFERYRAMFALRNAGGEEAALALAEGLHCGSALFRHEVGYVLGQLQHEAAVPQLAAALARCTENPMVRHECAEALGAIARPACLAALQAHADDPERVVRESCEVALDMYEHETGRAFQYADGLEQLRGAPS
  hypusination of R5 (LC-MS time course): A time course showing the conversion of two lysine to hypusine residues was determined by LC-MS

B3: BRSK2 (protein)
chain: MWPPDPDPDPDPEPAGGSRPGPAVPGLRALLPARAFLCSLKGRLLLAESGLSFITFICYVASSASAFLTAPLLEFLLALYFLFADAMQLNDKWQGLCWPMMDFLRCVTAALIYFAISITAIAKYSDGASKAAGVFGFFATIVFATDFYLIFNDVAKFLKQGDSADETTAHKTEEENSDSDSD
  enzymatic modification of R5 (Phosphorylation): resulted in no modifications

B4: vopS (protein)
chain: GKEYTINAATQEFTRANPTSGAVARFFEATGKLFREGSTQSVAKAITKAVFDNEQGQAQRLQTSSSVEHGQMLFKDANLKTPSDVLNAFAKLDSKMVKSHAAELSQLAERAMTEVMLETDSGKNLKALIGDDAVKSLAVRVVKDYGGGVAAAQKNPEVRINQMQAVFDMEVMHLKAAQRHIEGLASTDLNQGVYAEGLPEDAFNKAGVTNNVERAAAWIINASNSKGNDAENITSLLKEYATNGKDLLNMDNLKELHARLVPNVERDYRGPNISGGTLPSSIGGEGMLKQHIEGFLKENPVADKDLGKHLFAGVIGYHGFTDGNGRMGRMLYAIAELRNDSFNPLAMNAENSLHGIK
  enzymatic modification of R5 (Adenylylation): resulted in no modifications

B5: GALNT1 (protein)
chain: GLPAGDVLEPVQKPHEGPGEMGKPVVIPKEDQEKMKEMFKINQFNLMASEMIALNRSLPDVRLEGCKTKVYPDNLPTTSVVIVFHNEAWSTLLRTVHSVINRSPRHMIEEIVLVDDASERDFLKRPLESYVKKLKVPVHVIRMEQRSGLIRARLKGAAVSKGQVITFLDAHCECTVGWLEPLLARIKHDRRTVVCPIIDVISDDTFEYMAGSDMTYGGFNWKLNFRWYPVPQREMDRRKGDRTLPVRTPTMAGGLFSIDRDYFQEIGTYDAGMDIWGGENLEISFRIWQCGGTLEIVTCSHVGHVFRKATPYTFPGGTGQIINKNNRRLAEVWMDEFKNFFYIISPGVTKVDYGDISSRVGLRHKLQCKPFSWYLENIYPDSQIPRHYFSLGEIRNVETNQCLDNMARKENEKVGIFNCHGMGGNQVFSYTANKEIRTDDLCLDVSKLNGPVTMLKCHHLKGNQLWEYDPVKLTLQHVNSNQCLDKATEEDSQVPSIRDCNGSRSQQWLLRNVTLPEIF
  enzymatic modification of R5 (Glycosylation): resulted in no modifications

B6: OGT (protein)
chain: ASSVGNVADSTEPTKRMLSFQGLAELAHREYQAGDFEAAERHCMQLWRQEPDNTGVLLLLSSIHFQCRRLDRSAHFSTLAIKQNPLLAEAYSNLGNVYKERGQLQEAIEHYRHALRLKPDFIDGYINLAAALVAAGDMEGAVQAYVSALQYNPDLYCVRSDLGNLLKALGRLEEAKACYLKAIETQPNFAVAWSNLGCVFNAQGEIWLAIHHFEKAVTLDPNFLDAYINLGNVLKEARIFDRAVAAYLRALSLSPNHAVVHGNLACVYYEQGLIDLAIDTYRRAIELQPHFPDAYCNLANALKEKGSVAEAEDCYNTALRLCPTHADSLNNLANIKREQGNIEEAVRLYRKALEVFPEFAAAHSNLASVLQQQGKLQEALMHYKEAIRISPTFADAYSNMGNTLKEMQDVQGALQCYTRAIQINPAFADAHSNLASIHKDSGNIPEAIASYRTALKLKPDFPDAYCNLAHCLQIVCDWTDYDERMKKLVSIVADQLEKNRLPSVHPHHSMLYPLSHGFRKAIAERHGNLCLDKINVLHKPPYEHPKDLKLSDGRLRVGYVSSDFGNHPTSHLMQSIPGMHNPDKFEVFCYALSPDDGTNFRVKVMAEANHFIDLSQIPCNGKAADRIHQDGIHILVNMNGYTKGARNELFALRPAPIQAMWLGYPGTSGALFMDYIITDQETSPAEVAEQYSEKLAYMPHTFFIGDHANMFPHLKKKAVIDFKSNGHIYDNRIVLNGIDLKAFLDSLPDVKIVKMKCPDGGDNADSSNTALNMPVIPMNTIAEAVIEMINRGQIQITINGFSISNGLATTQINNKAATGEEVPRTIIVTTRSQYGLPEDAIVYCNFNQLYKIDPSTLQMWANILKRVPNSVLWLLRFPAVGEPNIQQYAQNMGLPQNRIIFSPVAPKEEHVRRGQLADVCLDTPLCNGHTTGMDVLWAGTPMVTMPGETLASRVAASQLTCLGCLELIAKNRQEYEDIAVKLGTDLEYLKKVRGKVWKQRISSPLFNTKQYTMELERLYLQMWEHYAAGNKPDHMIKPVEVTESA
  enzymatic modification of R5 (Glycosylation): resulted in no modifications

B7: POMT1 (protein)
chain: MWGFLKRPVVVTADINLSLVALTGMGLLSRLWRLTYPRAVVFDEVYYGQYISFYMKQIFFLDDSGPPFGHMVLALGGYLGGFDGNFLWNRIGAEYSSNVPVWSLRLLPALAGALSVPMAYQIVLELHFSHCAAMGAALLMLIENALITQSRLMLLESVLIFFNLLAVLSYLKFFNCQKHSPFSLSWWFWLTLTGVACSCAVGIKYMGVFTYVLVLGVAAVHAWHLLGDQTLSNVGADVQCCMRPACMGQMQMSQGVCVFCHLLARAVALLVIPVVLYLLFFYVHLILVFRSGPHDQIMSSAFQASLEGGLARITQGQPLEVAFGSQVTLRNVFGKPVPCWLHSHQDTYPMIYENGRGSSHQQQVTCYPFKDVNNWWIVKDPRRHQLVVSSPPRPVRHGDMVQLVHGMTTRSLNTHDVAAPLSPHSQEVSCYIDYNISMPAQNLWRLEIVNRGSDTDVWKTILSEVRFVHVNTSAVLKLSGAHLPDWGYRQLEIVGEKLSRGYHGSTVWNVEEHRYGASQEQRERERELHSPAQVDVSRNLSFMARFSELQWRMLALRSDDSEHKYSSSPLEWVTLDTNIAYWLHPRTSAQIHLLGNIVIWVSGSLALAIYALLSLWYLLRRRRNVHDLPQDAWLRWVLAGALCAGGWAVNYLPFFLMEKTLFLYHYLPALTFQILLLPVVLQHISDHLCRSQLQRSIFSALVVAWYSSACHVSNTLRPLTYGDKSLSPHELKALRWKDSWDILIRKH
  enzymatic modification of R5 (Glycosylation): resulted in no modifications

B8: LplA (protein)
chain: STLRLLISDSYDPWFNLAVEECIFRQMPATQRVLFLWRNADTVVIGRAQNPWKECNTRRMEEDNVRLARRSSGGGAVFHDLGNTCFTFMAGKPEYDKTISTSIVLNALNALGVSAEASGRNDLVVKTVEGDRKVSGSAYRETKDRGFHHGTLLLNADLSRLANYLNPDKKKLAAKGITSVRSRVTNLTELLPGITHEQVCEAITEAFFAHYGERVEAEIISPNKTPDLPNFAETFARQSSWEWNFGQAPAFSHLLDERFTWGGVELHFDVEKGHITRAQVFTDSLNPAPLEALAGRLQGCLYRADMLQQECEALLVDFPEQEKELRELSAWMAGAVR
  enzymatic modification of R5 (Lipidation): resulted in no modifications

B9: LipB (protein)
chain: MYQDKILVRQLGLQPYEPISQAMHEFTDTRDDSTLDEIWLVEHYPVFTQGQAGKAEHILMPGDIPVIQSDRGGQVTYHGPGQQVMYVLLNLKRRKLGVRELVTLLEQTVVNTLAELGIEAHPRADAPGVYVGEKKICSLGLRIRRGCSFHGLALNVNMDLSPFLRINPCGYAGMEMAKISQWKPEATTNNIAPRLLENILALLNNPDFEYITA
  enzymatic modification of R5 (Lipidation): resulted in no modifications

B10: NMT2 (protein)
chain: MAEDSESAASQQSLELDDQDTCGIDGDNEEETEHAKGSPGGYLGAKKKKKKQKRKKEKPNSGGTKSDSASDSQEIKIQQPSKNPSVPMQKLQDIQRAMELLSACQGPARNIDEAAKHRYQFWDTQPVPKLDEVITSHGAIEPDKDNVRQEPYSLPQGFMWDTLDLSDAEVLKELYTLLNENYVEDDDNMFRFDYSPEFLLWALRPPGWLLQWHCGVRVSSNKKLVGFISAIPANIRIYDSVKKMVEINFLCVHKKLRSKRVAPVLIREITRRVNLEGIFQAVYTAGVVLPKPIATCRYWHRSLNPRKLVEVKFSHLSRNMTLQRTMKLYRLPDVTKTSGLRPMEPKDIKSVRELINTYLKQFHLAPVMDEEEVAHWFLPREHIIDTFVVESPNGKLTDFLSFYTLPSTVMHHPAHKSLKAAYSFYNIHTETPLLDLMSDALILAKSKGFDVFNALDLMENKTFLEKLKFGIGDGNLQYYLYNWRCPGTDSEKVGLVLQ
  enzymatic modification of R5 (Lipidation): resulted in no modifications

B11: lysine methyltransferase SETD7 (SET7/9) (protein)
chain: MDSDDEMVEEAVEGHLDDDGLPHGFCTVTYSSTDRFEGNFVHGEKNGRGKFFFFDGSTLEGYYVDDALQGQGVYTYEDGGVLQGTYVDGELNGPAQEYDTDGRLIFKGQYKDNIRHGVCWIYYPDGGSLVGEVNEDGEMTGEKIAYVYPDERTALYGKFIDGEMIEGKLATLMSTEEGRPHFELMPGNSVYHFDKSTSSCISTNALLPDPYESERVYVAESLISSAGEGLFSKVAVGPNTVMSFYNGVRITHQEVDSRDWALNGNTLSLDEETVIDVPEPYNHVSKYCASLGHKANHSFTPNCIYDMFVHPRFGPIKCIRTLRAVEADEELTVAYGYDHSPPGKSGPEAPEWYQVELKAFQATQQK
  methylation of R5 (LC-MS time course): A time course showing the incorporation of zero to 16 methyl groups into R5

B12: SET7/9 Y305F (protein)
chain: MDSDDEMVEEAVEGHLDDDGLPHGFCTVTYSSTDRFEGNFVHGEKNGRGKFFFFDGSTLEGYYVDDALQGQGVYTYEDGGVLQGTYVDGELNGPAQEYDTDGRLIFKGQYKDNIRHGVCWIYYPDGGSLVGEVNEDGEMTGEKIAYVYPDERTALYGKFIDGEMIEGKLATLMSTEEGRPHFELMPGNSVYHFDKSTSSCISTNALLPDPYESERVYVAESLISSAGEGLFSKVAVGPNTVMSFYNGVRITHQEVDSRDWALNGNTLSLDEETVIDVPEPYNHVSKYCASLGHKANHSFTPNCIFDMFVHPRFGPIKCIRTLRAVEADEELTVAYGYDHSPPGKSGPEAPEWYQVELKAFQATQQK
  methylation of R5 (LC-MS time course): A time course showing the incorporation of zero to 16 methyl groups into R5

Source: patent US20180244725
